Where “and” joins values, the source holds several entries; their conditions need not be identical. Identical values can stand only once.
Details: Pseudomonas putida, 25 °C, GdnHCl, phosphate 50 mM, reversible: yes, whole UniProt chain shown

B1: 2-hydroxymuconate tautomerase wild type, Q01468 (protein)
chain: MPIAQIHILEGRSDEQKETLIREVSEAISRSLDAPLTSVRVIITEMAKGHFGIGGELASKVRR
denaturant midpoint (higher = more stable) (pH 6, CD): 1.9 M and 2.1 M and 2.3 M | denaturant midpoint (higher = more stable) (pH 6, activity): 1.4 M and 1.7 M | denaturant midpoint (higher = more stable) (pH 7.4, CD): 2.4 M and 2.7 M and 2.9 M | denaturant midpoint (higher = more stable) (pH 7.4, activity): 2.2 M and 2.5 M and 2.9 M | denaturant midpoint (higher = more stable) (pH 8.5, CD): 2.5 M and 2.8 M and 3 M | denaturant midpoint (higher = more stable) (pH 8.5, activity): 2.5 M and 2.7 M and 2.9 M

Reference: FireProtDB (doi:10.1021/bi002752b)
